Values quoted from earlier work in publication PMC3490216.

What was measured:
[1] = target: VPAC1 receptor (UniProt P32241)
[2] = target: VPAC2 receptor (UniProt P41587)
UniProt P41587, sequence (P41587 24-438): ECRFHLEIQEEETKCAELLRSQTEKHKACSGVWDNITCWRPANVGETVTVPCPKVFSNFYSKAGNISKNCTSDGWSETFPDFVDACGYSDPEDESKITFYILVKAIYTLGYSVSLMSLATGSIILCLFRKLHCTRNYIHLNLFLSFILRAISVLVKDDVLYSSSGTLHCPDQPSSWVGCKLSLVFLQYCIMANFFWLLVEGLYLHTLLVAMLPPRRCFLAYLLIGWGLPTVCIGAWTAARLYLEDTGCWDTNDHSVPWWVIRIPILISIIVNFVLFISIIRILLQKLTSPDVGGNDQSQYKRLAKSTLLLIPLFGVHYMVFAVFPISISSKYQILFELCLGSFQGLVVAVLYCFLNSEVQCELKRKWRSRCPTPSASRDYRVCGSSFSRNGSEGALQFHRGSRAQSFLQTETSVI

UniProt P32241, sequence (P32241 31-457): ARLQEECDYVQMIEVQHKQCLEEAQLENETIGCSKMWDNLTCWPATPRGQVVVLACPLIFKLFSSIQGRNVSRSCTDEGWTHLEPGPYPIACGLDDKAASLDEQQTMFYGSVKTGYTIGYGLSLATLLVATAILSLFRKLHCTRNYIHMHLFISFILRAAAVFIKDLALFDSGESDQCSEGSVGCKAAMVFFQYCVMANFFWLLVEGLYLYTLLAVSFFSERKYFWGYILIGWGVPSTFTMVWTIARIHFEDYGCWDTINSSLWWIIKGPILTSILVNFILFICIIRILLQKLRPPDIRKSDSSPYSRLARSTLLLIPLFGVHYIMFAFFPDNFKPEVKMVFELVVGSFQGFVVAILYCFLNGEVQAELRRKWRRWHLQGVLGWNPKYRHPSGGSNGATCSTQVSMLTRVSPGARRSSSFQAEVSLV

Kd [1]: 3 nM
Kd [2]: 3 nM
Substance: VIP (from UniProt P01282)
